In patent publication US20040146882A1, “Human acid sensing ion channel 2b (hASIC2b), process for producing the same, and its use” (priority 2002, published 2004):

T1: ASIC1 (Rattus norvegicus, UniProt P55926)
T1 sequence (P55926 1-526): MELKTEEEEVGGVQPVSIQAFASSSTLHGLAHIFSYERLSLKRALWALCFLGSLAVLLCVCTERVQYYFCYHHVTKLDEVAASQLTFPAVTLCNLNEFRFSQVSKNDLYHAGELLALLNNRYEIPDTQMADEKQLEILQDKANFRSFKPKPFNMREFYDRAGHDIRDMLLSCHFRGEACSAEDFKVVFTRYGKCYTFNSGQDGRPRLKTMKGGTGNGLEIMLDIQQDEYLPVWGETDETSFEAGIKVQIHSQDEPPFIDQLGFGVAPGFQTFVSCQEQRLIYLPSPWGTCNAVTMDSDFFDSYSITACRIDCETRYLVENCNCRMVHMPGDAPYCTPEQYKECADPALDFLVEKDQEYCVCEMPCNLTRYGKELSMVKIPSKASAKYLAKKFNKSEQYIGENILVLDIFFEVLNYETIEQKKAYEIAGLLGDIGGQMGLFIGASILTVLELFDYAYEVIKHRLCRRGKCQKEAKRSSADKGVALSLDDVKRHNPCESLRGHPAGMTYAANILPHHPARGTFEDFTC

T2: ASIC2a (Rattus norvegicus, UniProt Q62962)
T2 sequence (Q62962 1-512): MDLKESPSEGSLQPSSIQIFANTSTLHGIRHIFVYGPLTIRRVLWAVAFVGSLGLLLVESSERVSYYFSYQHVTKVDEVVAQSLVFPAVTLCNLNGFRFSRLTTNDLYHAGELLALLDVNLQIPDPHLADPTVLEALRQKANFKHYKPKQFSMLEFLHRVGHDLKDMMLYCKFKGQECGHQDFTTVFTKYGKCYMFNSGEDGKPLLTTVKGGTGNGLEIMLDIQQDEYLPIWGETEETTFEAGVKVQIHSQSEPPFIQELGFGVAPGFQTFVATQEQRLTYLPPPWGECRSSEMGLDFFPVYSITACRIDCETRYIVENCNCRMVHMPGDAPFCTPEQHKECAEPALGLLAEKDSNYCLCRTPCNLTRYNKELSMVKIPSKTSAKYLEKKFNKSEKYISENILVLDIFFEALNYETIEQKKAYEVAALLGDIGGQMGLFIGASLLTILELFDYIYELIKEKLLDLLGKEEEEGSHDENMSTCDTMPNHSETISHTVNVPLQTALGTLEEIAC

B1: human Acid Sensing Ion Channel 2b (hASIC2b) (protein)
chain: MSRIGGAGLPAAALTGPGRFRMAREEPAPAALAAAGQPGGGRGGERALQGPGVARRGRPSLSRAKLHGLRHMCAGRTAAGGSFQRRALWVLAFCTSFGLLLSWSSNRLLYWLSFPSHTRVHREWSRQLPFPAVTVCNNNPLRFPRLSKGDLYYAGHWLGLLLPNRTARPLVSELLRGDEPRRQWFRKLADFRLFLPPRHFEGISAAFMDRLGHQLEDMLLSCKYRGELCGPHNFSSVFTKYGKCYMFNSGEDGKPLLTTVKGGTGNGLEIMLDIQQDEYLPIWGETEETTFEAGVKVQIHSQSEPPFIQELGFGVAPGFQTFVATQEQRLTYLPPPWGECRSSEMGLDFFPVYSITACRIDCETRYIVENCNCRMVHMPGDAPFCTPEQHKECAEPALGLLAEKDSNYCLCRTPCNLTRYNKELSMVKIPSKTSAKYLEKKFNKSEKYISENILVLDIFFEALNYETIEQKKAYEVAALLGDIGGQMGLFIGASILTILELFDYIYELIKEKLLDLLGKEEDEGSHDENVSTCDTMPNHSETISHTVNVPLQTTLGTLEEIAC

Experiments:
ASIC1 = target: T1, ASIC1; conditions: cited from earlier work
ASIC2a = target: T2, ASIC2a; conditions: cited from earlier work
[1] = target: human Acid Sensing Ion Channel 2a (hASIC2a) (human) (UniProt Q16515); assay: cell-based or functional assay
CHO-K1 cells = assay: whole-cell patch clamp recording of acid-induced currents in transfected CHO-K1 cells; type: cell-based, Chinese Hamster
Protocol: The mammalian expression vectors for hASIC2b and hASIC2a were constructed using appropriate expression vectors such as pcDNA3.1 (Clonetech) according to conventional molecular biological methods. Chinese Hamster Ovary (CHO)-K1 cells were seeded on a 35 mm dish in diameter at a density of 20,000 cells, and then transfected with various combinations of ASIC expression vectors with FuGENE6 transfection reagent (Roche) according to the manufacturer's instructions as follows: the hAISC2b expression vector alone (1 μg) for homomeric hASIC2b expression, hASIC2a and green fluorescent protein (GFP) expression vectors (1:2 molar ratio in a total of 1 μg) for hASIC2a expression, and hASIC2b/hASIC2a (1:2 molar ratio in a total of 1 μg) for heteromeric expression. Cells were used for electrophysiological measurements 2 days after the transfection. Successfully transfected cells were recognized by GFP emission signal. Ion currents were recorded using whole-cell patch clamp technique. Recording was made with an Axopatch 200B amplifier (Axon Instruments). Currents were filtered at 5 kHz and digitized by using Digidata 1321A interface. Data were interpolated using Origin6.0 (version 6.0, Microcal). Pipettes were pulled from borosilicate glass and had pipette resistances 1-4MΩ when filled with the intercellular solution. All recordings were made at room temperature (23±2° C.). […]

Molecule	block of ASIC1 (ASIC1)	sensitivity of cation transport by ASIC1a (ASIC1)	sensitivity of cation transport by ASIC2a (ASIC2a)	pH50 value for activation (hASIC2a/hASIC2b co-expressing CHO-K1 cells) [1] [pH]	peak current density at pH2.0 (hASIC2a/hASIC2b CHO-K1 transformants) [1] [pA/pF]	peak current density at pH3.0 (hASIC2a/hASIC2b CHO-K1 transformants) [1] [pA/pF]	peak current density at pH4.0 (hASIC2a/hASIC2b CHO-K1 transformants) [1] [pA/pF]	acid-induced inward currents (CHO-K1 cells; 5 sec application of low pH solution, pH 2.0-4.0, FIG. 5)	effect on acid-induced ion currents of hASIC2a (CHO-K1 cells; co-expression with hASIC2a)
CCN(c1nc(N)c(C(=O)NC(=N)N)nc1Cl)C(C)C [ethylisopropylamiloride]	blocked	–	–	–	–	–	–	–	–
N=C(N)NC(=O)c1nc(Cl)c(N)nc1N [amiloride]	blocked	sensitive	sensitive	–	–	–	–	–	–
B1	–	–	–	3.43	113	88.9	21	inactive	inhibitory effect
